From patent US20230235013A1 (MABSOLVE, published 2023)
Residue numbers refer to the chain shown, from its start. Numbers in names are those of the source. Blank lines part the entries; values can stand above or below the binder they belong to.

What was measured:
[1] = molecular target: T1, Histidine-tagged recombinant human FcγRI (CD64) (human, UniProt P12314 16-288, limits assumed); experiment: SPR, His-FcγRI captured; Expt 3;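 further: biacore T200 SPR at 25 °C, Fc-variant antibodies at 100 µg/mL flowed 1 min over anti-His-captured FcγRI, signal taken just before injection end minus a buffer blank cycle; antibody analyte injected at 100 µg/mL for 1 min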
T1 construct: bought

[2] = molecular target: T1, Histidine-tagged recombinant human …; experiment: SPR, His-FcγRI captured; Expt 2;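 further: biacore T200 SPR at 25 °C, Fc-variant antibodies at 100 µg/mL flowed 1 min over anti-His-captured receptor, signal read near injection end minus third buffer blank; antibody analyte injected at 100 µg/mL for 1 min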
Description: (§1) Binding analysis was carried out by surface plasmon resonance at 25° C. using a Biacore® T200 instrument with Biacore® T200 control software. The sample compartment was held at 5° C. The running buffer (HBS-EP+) consisted of 0.01 M HEPES pH 7.4, containing 0.15 M NaCl, 3 mM EDTA, and 0.05% v/v Surfactant P20. Methods were run using the manufacturer's standard method wizards as described in the Biacore® T200 Instrument Handbook.
(§2) The cell was activated by treatment with EDC/NHS for 7 min. The antibody was diluted to 10 μg/mL in 10 mM sodium acetate pH 5.0 and injected for 7 min at 5 μL/min. The flow cell was deactivated by injection of 1M ethanolamine for 7 min. This process was repeated in the absence of anti-his antibody on a separate flow cell to generate a reference surface. […] Samples of purified antibodies comprising variant Fc regions (1 mg/mL in PBS) were diluted with running buffer to 100 μg/mL and were injected for 1 min at 30 μL/min and allowed to disassociate for 2 min. Between each cycle, the chip was regenerated by injection of 10 mM glycine pH 3.0 for 0.5 min at a flow rate of 30 μL/min and recharged with a fresh injection of FcγRI. At the beginning of each experiment, three blank cycles were run, with buffer alone being injected instead of test sample. The average SPR signal (relative to the reference cell) was measured in a window approximately 8 to 13 seconds before the injection of test sample (baseline) and approximately 3 to 8 seconds before the end of injection (response). The response of the third of the blank (buffer) samples was subtracted from the response of each test sample in order to allow for any dissociation of the bound FcγRI giving a corrected response for each test sample. The whole experiment was repeated three times with the test samples being analysed in different orders each time.

[3] = molecular target: T1, Histidine-tagged recombinant human …; experiment: SPR, His-FcγRI captured; mean;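 further: biacore T200 SPR at 25 °C, anti-His surface capturing FcγRI, Fc-variant antibodies injected at 100 µg/mL for 1 min, signal near injection end minus third buffer blank, three repeats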
[4] = molecular target: T1, Histidine-tagged recombinant human …; experiment: SPR, His-FcγRI captured; Expt 1;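 further: SPR at 25 °C on anti-His antibody chip capturing FcγRI, Fc-variant antibodies injected at 100 µg/mL for 1 min, signal near end of injection minus buffer blank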
Description: as §1, §2

B1: anti-CD20 human IgG1 L234D/L235Q/G236R (antibody)
heavy: QVQLQQPGAELVKPGASVKMSCKASGYTFTSYNMHWVKQTPGRGLEWIGAIYPGNGDTSYNQKFKGKATLTADKSSSTAYMQLSSLTSEDSAVYYCARSTYYGGDWYFNVWGAGTTVTVSSASTKGPSVFPLAPSSKSTSGGTAALGCLVKDYFPEPVTVSWNSGALTSGVHTFPAVLQSSGLYSLSSVVTVPSSSLGTQTYICNVNHKPSNTKVDKKVEPKSCDKTHTCPPCPAPEDQRGPSVFLFPPKPKDTLMISRTPEVTCVVVDVSHEDPEVKFNWYVDGVEVHNAKTKPREEQYNSTYRVVSVLTVLHQDWLNGKEYKCKVSNKALPAPIEKTISKAKGQPREPQVYTLPPSRDELTKNQVSLTCLVKGFYPSDIAVEWESNGQPENNYKTTPPVLDSDGSFFLYSKLTVDKSRWQQGNVFSCSVMHEALHNHYTQKSLSLSPGK
light: QIVLSQSPAILSASPGEKVTMTCRASSSVSYIHWFQQKPGSSPKPWIYATSNLASGVPVRFSGSGSGTSYSLTISRVEAEDAATYYCQQWTSNPPTFGGGTKLEIKRTVAAPSVFIFPPSDEQLKSGTASVVCLLNNFYPREAKVQWKVDNALQSGNSQESVTEQDSKDSTYSLSSTLTLSKADYEKHKVYACEVTHQGLSSPVTKSFNRGEC
notes: also called 2-9; 1-27
Corrected response (RU) [1]: 7.1 RU | Corrected response (RU) [2]: 5.9 RU | Corrected response (RU), Mean [3]: 6.2 RU | Corrected response (RU) [4]: 5.7 RU

B3: anti-CD20 human IgG1 L234E/L235I/G236R (antibody)
heavy: B1 heavy with D238E, Q239I
light: B1 light
notes: also called 2-14; 1-37
Corrected response (RU) [1]: 11.7 RU | Corrected response (RU) [2]: 8.1 RU | Corrected response (RU), Mean [3]: 10.4 RU | Corrected response (RU) [4]: 11.6 RU

B4: anti-CD20 human IgG1 L234D/L235T/G236R (antibody)
heavy: B1 heavy with Q239T
light: B1 light
notes: also called 2-11; 1-30
Corrected response (RU) [1]: 5.5 RU | Corrected response (RU) [2]: 4.3 RU | Corrected response (RU), Mean [3]: 4.3 RU | Corrected response (RU) [4]: 3 RU

B6: anti-CD20 human IgG1 L234G/L235H/G236R (antibody)
heavy: B1 heavy with D238G, Q239H
light: B1 light
notes: also called 2-17; 1-51
Corrected response (RU) [1]: 24.4 RU | Corrected response (RU) [2]: 4.2 RU | Corrected response (RU), Mean [3]: 10.1 RU | Corrected response (RU) [4]: 1.8 RU

B7: anti-CD20 human IgG1 L234E/L235V/G236R (antibody)
heavy: B1 heavy with D238E, Q239V
light: B1 light
notes: also called 2-16; 1-46
Corrected response (RU) [1]: 7.4 RU | Corrected response (RU) [2]: 5.5 RU | Corrected response (RU), Mean [3]: 5.9 RU | Corrected response (RU) [4]: 4.8 RU

B8: anti-CD20 human IgG1 L234E/L235D/G236R (antibody)
heavy: B1 heavy with D238E, Q239D
light: B1 light
notes: also called 2-12; 1-33
Corrected response (RU) [1]: 12.3 RU | Corrected response (RU) [2]: 9.4 RU | Corrected response (RU), Mean [3]: 12.3 RU | Corrected response (RU) [4]: 15.1 RU

B10: anti-CD20 human IgG1 L234E/L235H/G236R (antibody)
heavy: B1 heavy with D238E, Q239H
light: B1 light
notes: also called 2-13; 1-36
Corrected response (RU) [1]: 6.2 RU | Corrected response (RU) [2]: 4.5 RU | Corrected response (RU), Mean [3]: 5.1 RU | Corrected response (RU) [4]: 4.6 RU

Results, then the binder that gave them:

Corrected response (RU) [1]: 6.1 RU | Corrected response (RU) [2]: 5.2 RU | Corrected response (RU), Mean [3]: 5.3 RU | Corrected response (RU) [4]: 4.4 RU
B2: anti-CD20 human IgG1 L234G/L235Q/G236R (antibody)
heavy: B1 heavy with D238G
light: B1 light
notes: also called 2-18; 1-57

Corrected response (RU) [1]: 1.1 RU | Corrected response (RU) [2]: -1 RU | Corrected response (RU), Mean [3]: -0.6 RU | Corrected response (RU) [4]: -1.8 RU
B5: anti-CD20 human IgG1 L234K/L235T/G236R (antibody)
heavy: B1 heavy with D238K, Q239T
light: B1 light
notes: also called 2-25; 1-90

Corrected response (RU) [1]: 22.8 RU | Corrected response (RU) [2]: 10.9 RU | Corrected response (RU), Mean [3]: 15.6 RU | Corrected response (RU) [4]: 13.1 RU
B9: anti-CD20 human IgG1 L234H/L235I/G236R (antibody)
heavy: B1 heavy with D238H, Q239I
light: B1 light
notes: also called 2-20; 1-67
